Experimental data as given in the supplement of paper PMC7877785.
± gives the uncertainty stated by the source.

Test: self-splicing fitness, log relative to wild type (ln ratio); higher = more splicing; Tetrahymena group I intron in knt gene, E. coli kanamycin selection, DiMSum; sequences stand for … in CUCUCU…GGAGGGAAAAGUUAUCAGGCAUGCACCUGGUAGCUAGUCUUUAAACCAAUAGAUUGCAUCGGUUUAAAAGGCAAGACCGUCAAAUUGCGGGAAAGGGGUCAACAGCCGUUCAGUACCAAGUCUCAGGGGAAACUUUGAGAUGGCCUUGCAAAGGGUAUGGUAAUAAGCUGACGGACAUGGUCCUAACCACGCAGCCAAGUCCUAAGUCAACAGAUCUUCUGUUGAUAUGGAUGCAGUUCACAGACUAAAUGUCGGUCGGGGAAGAUGUAUUCUUCUCAUAAGAUAUAGUCGGACCUCUCCUUAAUGGGAGCUAGCGGAUGAAGUGAUGCAACACUGGAGCCGCUGGGAACUAAUUUGUAUGCGAAAGUAUAUUGAUUAGUUUUGGAGUACUCGUGGUCG
How it was run: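 Pooled colonies went to amplicon sequencing on an Illumina HiSeq 2500 after six replicate transformations. The plates were LB agar with 100 μg/mL carbenicillin, 50 μM IPTG and 0.2% rhamnose, with or without 25 μg/mL kanamycin, incubated overnight at 37°C or 30°C. The E. coli BL21(DE3) library had all eight P1ex-region intron nucleotides randomised, the intron placed in the knt kanamycin-resistance gene on pET-22b(+). DiMSum fitness is the error-weighted combination of replicate fold changes, kanamycin against none, normalised to wild type.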

| Sequence | self-splicing fitness (ln) (30 °C) | self-splicing fitness (ln) (37 °C) |
| --- | --- | --- |
| UGUUAGCAAUAUUACGGCAA | -0.875 ± 0.15 | -0.17 ± 0.14 |
| UGUUAGCAAUAUUACGGGCG | -0.142 ± 0.11 | 0.388 ± 0.12 |
| UGUUAGCAAUAUUACGUCGG | -0.97 ± 0.1 | -0.8 ± 0.17 |
| UGUUAGCAAUAUUACGUGCC | -2.05 ± 0.17 | -0.583 ± 0.21 |
| UGUUAGCAAUAUUACGUGUC | -3.15 ± 0.33 | -1.48 ± 0.28 |
| UGUUAGCAAUAUUACGUUGC | -2.88 ± 0.24 | -1.62 ± 0.26 |
| UGUUAGCAAUAUUACGUUGG | -1.56 ± 0.11 | -1.26 ± 0.14 |
| UUAAAGCAAUAUUACGAUAA | 0.359 ± 0.084 | 0.431 ± 0.1 |
| UUAAAGCAAUAUUACGAUCC | -1.64 ± 0.18 | -0.49 ± 0.24 |
| UUAAAGCAAUAUUACGCAUU | -2.76 ± 0.15 | -2.86 ± 0.27 |
| UUAAAGCAAUAUUACGCCAA | 0.638 ± 0.29 | -0.283 ± 0.39 |
| UUAAAGCAAUAUUACGCCAG | 0.134 ± 0.17 | -1.25 ± 0.21 |
| UUAAAGCAAUAUUACGGAAU | -3.11 ± 0.17 | -1.73 ± 0.17 |
| UUAAAGCAAUAUUACGGAGC | -3.99 ± 0.28 | -0.662 ± 0.23 |
| UUAAAGCAAUAUUACGGAUC | -1.78 ± 0.24 | -0.2 ± 0.21 |
| UUAAAGCAAUAUUACGGGAA | -0.821 ± 0.088 | -0.351 ± 0.12 |
| UUAAAGCAAUAUUACGGGAU | -2.8 ± 0.14 | -0.86 ± 0.12 |
| UUAAAGCAAUAUUACGGUAA | -0.33 ± 0.076 | 0.503 ± 0.1 |
| UUAAAGCAAUAUUACGGUUA | 0.31 ± 0.069 | -0.0607 ± 0.072 |
| UUAAAGCAAUAUUACGUAAA | -1.16 ± 0.12 | -0.0909 ± 0.12 |
| UUAAAGCAAUAUUACGUAGA | -1.55 ± 0.099 | -0.654 ± 0.12 |
| UUAAAGCAAUAUUACGUAUG | -0.495 ± 0.068 | -0.0669 ± 0.097 |
| UUAAAGCAAUAUUACGUAUU | -3.28 ± 0.15 | -2.75 ± 0.2 |
| UUAAAGCAAUAUUACGUGAA | -1.8 ± 0.13 | -0.0245 ± 0.13 |

| Sequence | self-splicing fitness (ln) (30 °C) | self-splicing fitness (ln) (37 °C) |
| --- | --- | --- |
| UUAAAGCAAUAUUACGUGCG | -0.23 ± 0.058 | -0.242 ± 0.085 |
| UUAAAGCAAUAUUACGUGGC | -3.08 ± 0.15 | -2.98 ± 0.3 |
| UUAAAGCAAUAUUACGUUUA | -0.747 ± 0.068 | -0.409 ± 0.09 |
| UUACAGCAAUAUUACGAAAG | -2.87 ± 0.29 | -2.73 ± 0.33 |
| UUACAGCAAUAUUACGACUC | -2.69 ± 0.24 | -1.28 ± 0.2 |
| UUACAGCAAUAUUACGCAAG | -1.73 ± 0.1 | -0.345 ± 0.12 |
| UUACAGCAAUAUUACGCGAG | -1.02 ± 0.085 | -0.72 ± 0.08 |
| UUACAGCAAUAUUACGCGAU | -2.28 ± 0.18 | -1.75 ± 0.16 |
| UUACAGCAAUAUUACGCGGA | -1.6 ± 0.12 | -0.823 ± 0.095 |
| UUACAGCAAUAUUACGCUUA | -1.38 ± 0.11 | -0.114 ± 0.1 |
| UUACAGCAAUAUUACGCUUC | -3.13 ± 0.37 | -2.99 ± 0.47 |
| UUACAGCAAUAUUACGGACU | -2.05 ± 0.17 | -1.9 ± 0.17 |
| UUACAGCAAUAUUACGGCUA | -0.676 ± 0.091 | 0.443 ± 0.11 |
| UUACAGCAAUAUUACGGGAU | -3.85 ± 0.21 | -2.69 ± 0.13 |
| UUACAGCAAUAUUACGGGCU | -3.86 ± 0.24 | -2.32 ± 0.18 |
| UUACAGCAAUAUUACGGUAU | -1.96 ± 0.097 | -0.871 ± 0.1 |
| UUACAGCAAUAUUACGUAAC | -3.72 ± 0.18 | -3.25 ± 0.24 |
| UUACAGCAAUAUUACGUCAU | -3.77 ± 0.2 | -1.18 ± 0.12 |
| UUACAGCAAUAUUACGUCGG | -1.24 ± 0.08 | -0.125 ± 0.087 |
| UUACAGCAAUAUUACGUGAC | -3.7 ± 0.21 | -1.81 ± 0.16 |
| UUACAGCAAUAUUACGUUAA | -1.12 ± 0.11 | -0.847 ± 0.085 |
| UUAGAGCAAUAUUACGAAAA | -1.66 ± 0.13 | -0.776 ± 0.15 |
| UUAGAGCAAUAUUACGAAGA | -1.27 ± 0.13 | -0.451 ± 0.23 |
